Among the data in paper PMC9598537 are stoichiometry N values, retold here.

The target in experiment [1] is AR9 chaperonin (gp228, product of gene 228 of bacteriophage AR9 Bacillus subtilis) (bacteriophage AR9 (Bacillus subtilis phage)). Nature of the experiment: SAXS; gp228 at 0.5 to 7.0 mg/mL, 20 °C, P12 beamline PETRA III; oligomeric state from the excluded volume Vp.
Experiment [2] has the same target. The experiment is described as follows: cryo-EM structure; purified apo gp228 in 50 mM Tris-HCl pH 7.5, 10 mM MgCl2, 100 mM KCl; single particle analysis, maps with no symmetry and with C7 symmetry; homology model flexibly fitted into the map.

On to “AR9 chaperonin (gp228, product of gene 228 of bacteriophage AR9 Bacillus subtilis) (natural protein)”, for which the stoichiometry N in experiment [1] and in experiment [2] was 7 throughout.
